Measurements taken from PMC9462685 (Science Advances, 2022).

Target: the molecule itself
Assay: SEC

Row | Protein | binding result
1 | Sr35^R157A (receptor) MEIAMGAIGSLLPKLGELLIGEITLEKKVRKGIESLITELKLMQAVLSKVSKVPADQLDEGVKIWAGNVKELSYQMEDIVDAFMVRVGDGGESTNPKNRVKKILKKVKKLFKNGKDLHRISAALEEVVLQAKQLAELRQRYEQEMRDTSANTSVDPAMMALYTDVTELVGIEETRDKLINMLTEGDDWSKHPLKTISIVGFGGLGKTTLAKAAYDKIKVQFDCGAFVSVSRNPEMKKVLKDILYGLDKVKYENIHNAARDEKYLIDDIIEFLNDKRYLIVIDDIWNEKAWELIKCAFSKKSPGSRLITTTRNVSVSEACCSSEDDIYRMEPLSNDVSRTLFCKRIFSQEEGCPQELLKVSEEILKKCGGVPLAIITIASLLANKGHIKAKDEWYALLSSIGHGLTKNRSLEQMKKILLFSYYDLPSYLKPCLLYLSIFPEDREIRRARLIWRWISEGFVYSEKQDISLYELGDSYFNELVNRSMIQPIGIDDEGKVKACRVHDMVLDLICSLSSEENFVTILDDPRRKMPNSESKVRRLSIQNSKIDVDTTRMEHMRSVTVFSDNVVGKVLDISRFKVLRVLDLEGCHVSDVGYVGNLLHLRYLGLKGTHVKDLPMEIGKLQFLLTLDLRGTKIEVLPWSVVQLRRLMCLYVDYGMKLPSGIGNLTFLEVLDDLGLSDVDLDFVKELGRLTKLRVLRLDFHGFDQSMGKALEESISNMYKLDSLDVFVNRGLINCLSEHWVPPPRLCRLAFPSKRSWFKTLPSWINPSSLPLLSYLDITLFEVRSEDIQLLGTLPALVYLEIWNYSVFEEAHEVEAPVLSSGAALFPCATECRFIGIGAVPSMFPQGAAPRLKRLWFTFPAKWISSENIGLGMRHLPSLQRVVVDVISEGASREEADEAEAALRAAAEDHPNRPILDIW | binds
2 | Sr35^Δ20 (domain or fragment) GEITLEKKVRKGIESLITELKLMQAVLSKVSKVPADQLDEGVKIWAGNVKELSYQMEDIVDAFMVRVGDGGESTNPKNRVKKILKKVKKLFKNGKDLHRISAALEEVVLQAKQLAELRQRYEQEMRDTSANTSVDPRMMALYTDVTELVGIEETRDKLINMLTEGDDWSKHPLKTISIVGFGGLGKTTLAKAAYDKIKVQFDCGAFVSVSRNPEMKKVLKDILYGLDKVKYENIHNAARDEKYLIDDIIEFLNDKRYLIVIDDIWNEKAWELIKCAFSKKSPGSRLITTTRNVSVSEACCSSEDDIYRMEPLSNDVSRTLFCKRIFSQEEGCPQELLKVSEEILKKCGGVPLAIITIASLLANKGHIKAKDEWYALLSSIGHGLTKNRSLEQMKKILLFSYYDLPSYLKPCLLYLSIFPEDREIRRARLIWRWISEGFVYSEKQDISLYELGDSYFNELVNRSMIQPIGIDDEGKVKACRVHDMVLDLICSLSSEENFVTILDDPRRKMPNSESKVRRLSIQNSKIDVDTTRMEHMRSVTVFSDNVVGKVLDISRFKVLRVLDLEGCHVSDVGYVGNLLHLRYLGLKGTHVKDLPMEIGKLQFLLTLDLRGTKIEVLPWSVVQLRRLMCLYVDYGMKLPSGIGNLTFLEVLDDLGLSDVDLDFVKELGRLTKLRVLRLDFHGFDQSMGKALEESISNMYKLDSLDVFVNRGLINCLSEHWVPPPRLCRLAFPSKRSWFKTLPSWINPSSLPLLSYLDITLFEVRSEDIQLLGTLPALVYLEIWNYSVFEEAHEVEAPVLSSGAALFPCATECRFIGIGAVPSMFPQGAAPRLKRLWFTFPAKWISSENIGLGMRHLPSLQRVVVDVISEGASREEADEAEAALRAAAEDHPNRPILDIW | binds
